From patent US20190361034A1
Each block holds one substance with its values, some of them ahead of it.

Key:
[1] = target: MHC class II molecules on MHC class II-expressing Raji cells (human); experiment: transfer cell ELISA, Raji cells; 250 ng/ml; plate row C
[2] = target: MHC class II molecules on MHC class II-expressing Raji cells (human); experiment: transfer cell ELISA, Raji cells; 250 ng/ml; plate row D
[3] = target: MHC class II molecules on MHC class II-expressing Raji cells (human); experiment: transfer cell ELISA, Raji cells; 1000 ng/ml; plate row C
[4] = target: MHC class II molecules on MHC class II-expressing Raji cells (human); experiment: transfer cell ELISA, Raji cells; 62.5 ng/ml; plate row C
[5] = target: MHC class II molecules on MHC class II-expressing Raji cells (human); experiment: transfer cell ELISA, Raji cells; 1.953 ng/ml; plate row C
[6] = target: MHC class II molecules on MHC class II-expressing Raji cells (human); experiment: transfer cell ELISA, Raji cells; 31.25 ng/ml; plate row C
[7] = target: MHC class II molecules on MHC class II-expressing Raji cells (human); experiment: direct ELISA, plate-immobilised Raji cells; 5% BSA, 5,000 cells; 125 ng/ml
[8] = target: MHC class II molecules on MHC class II-expressing Raji cells (human); experiment: direct ELISA, plate-immobilised Raji cells; 5% BSA, 5,000 cells; 250 ng/ml
[9] = target: MHC class II molecules on MHC class II-expressing Raji cells (human); experiment: direct ELISA, plate-immobilised Raji cells; 10% FBS, 2,500 cells; 125 ng/ml
[10] = target: MHC class II molecules on MHC class II-expressing Raji cells (human); experiment: direct ELISA, plate-immobilised Raji cells; 10% FBS, 10,000 cells; 500 ng/ml
[11] = target: MHC class II molecules on MHC class II-expressing Raji cells (human); experiment: direct ELISA, plate-immobilised Raji cells; 5% BSA, 5,000 cells; 31.25 ng/ml
[12] = target: MHC class II molecules on MHC class II-expressing Raji cells (human); experiment: direct ELISA, plate-immobilised Raji cells; 10% FBS, 10,000 cells; 31.25 ng/ml
[13] = target: MHC class II molecules on MHC class II-expressing Raji cells (human); experiment: transfer cell ELISA, Raji cells; 125 ng/ml
[14] = target: MHC class II molecules on MHC class II-expressing Raji cells (human); experiment: transfer cell ELISA, Raji cells; 62.5 ng/ml
[15] = target: MHC class II molecules on MHC class II-expressing Raji cells (human); experiment: BLI; immobilised sample, Raji cells in solution; dark control of FIG. 23
[16] = target: MHC class II molecules on MHC class II-expressing Raji cells (human); experiment: BLI; immobilised sample, Raji cells in solution; pH 7.0 control of FIG. 22
[17] = target: MHC class II molecules on MHC class II-expressing Raji cells (human); experiment: direct ELISA, plate-immobilised Raji cells; 3% gelatin, 5,000 cells; 125 ng/ml
[18] = target: MHC class II molecules on MHC class II-expressing Raji cells (human); experiment: direct ELISA, plate-immobilised Raji cells; 0.5% Casein, 2,500 cells; 125 ng/ml
[19] = target: MHC class II molecules on MHC class II-expressing Raji cells (human); experiment: direct ELISA, plate-immobilised Raji cells; 0.5% Casein, 5,000 cells; 125 ng/ml
[20] = target: MHC class II molecules on MHC class II-expressing Raji cells (human); experiment: direct ELISA, plate-immobilised Raji cells; 0.5% Casein, 5,000 cells; 250 ng/ml
[21] = target: MHC class II molecules on MHC class II-expressing Raji cells (human); experiment: direct ELISA, plate-immobilised Raji cells; 3% gelatin, 10,000 cells; 125 ng/ml
[22] = target: MHC class II molecules on MHC class II-expressing Raji cells (human); experiment: direct ELISA, plate-immobilised Raji cells; 3% gelatin, 2,500 cells; 62.5 ng/ml
[23] = target: MHC class II molecules on MHC class II-expressing Raji cells (human); experiment: direct ELISA, plate-immobilised Raji cells; 0.5% Casein, 10,000 cells; 125 ng/ml
[24] = target: MHC class II molecules on MHC class II-expressing Raji cells (human); experiment: direct ELISA, plate-immobilised Raji cells; 0.5% Casein, 10,000 cells; 250 ng/ml
[25] = target: MHC class II molecules on MHC class II-expressing Raji cells (human); experiment: direct ELISA, plate-immobilised Raji cells; 0.5% Casein, 10,000 cells; 500 ng/ml
[26] = target: MHC class II molecules on MHC class II-expressing Raji cells (human); experiment: direct ELISA, plate-immobilised Raji cells; 0.5% Casein, 2,500 cells; 1000 ng/ml
[27] = target: MHC class II molecules on MHC class II-expressing Raji cells (human); experiment: direct ELISA, plate-immobilised Raji cells; 0.5% Casein, 10,000 cells; 1000 ng/ml
[28] = target: MHC class II molecules on MHC class II-expressing Raji cells (human); experiment: direct ELISA, plate-immobilised Raji cells; 0.5% Casein, 2,500 cells; 31.25 ng/ml
[29] = target: MHC class II molecules on MHC class II-expressing Raji cells (human); experiment: direct ELISA, plate-immobilised Raji cells; 3% gelatin, 5,000 cells; 15.625 ng/ml
[30] = target: MHC class II molecules on MHC class II-expressing Raji cells (human); experiment: direct ELISA, plate-immobilised Raji cells; 0.5% Casein, 2,500 cells; 15.625 ng/ml
[31] = target: MHC class II molecules on MHC class II-expressing Raji cells (human); experiment: direct ELISA, plate-immobilised Raji cells; 0.5% Casein, 10,000 cells; 15.625 ng/ml
[32] = target: MHC class II molecules on MHC class II-expressing Raji cells (human); experiment: BLI; immobilised sample, Raji cells in solution; control of FIG. 19 (37° C., 1 day, no H2O2)
[33] = target: MHC class II molecules on MHC class II-expressing Raji cells (human); experiment: BLI; IMP321 sample diluted from reference standard to 75% binding potency, Raji cells in solution; relative to reference standard

OD (ELISA signal) [1]: 0.276 OD
OD (ELISA signal) [2]: 0.361 OD
OD (ELISA signal) [3]: 0.878 OD
OD (ELISA signal) [4]: 0.082 OD
OD (ELISA signal) [5]: 0.011 OD
OD (ELISA signal) [6]: 0.042 OD
OD (ELISA signal) [7]: 0.476 OD
OD (ELISA signal) [8]: 1.09 OD
OD (ELISA signal) [9]: 1.12 OD
OD (ELISA signal) [10]: 1.35 OD
OD (ELISA signal) [11]: 0.297 OD
OD (ELISA signal) [12]: 0.279 OD
Substance: IMP321 treated with Peptide-N-Glycosidase F (PNGase F) (Fc fusion)

OD (ELISA signal) [13]: 0.475 OD
OD (ELISA signal) [14]: 0.223 OD
Bioactivity (binding) [15]: 100%
Bioactivity (binding) [16]: 94%
OD (ELISA signal) [17]: 0.823 OD
OD (ELISA signal) [18]: 0.163 OD
OD (ELISA signal) [19]: 0.197 OD
OD (ELISA signal) [20]: 0.255 OD
OD (ELISA signal) [21]: 0.688 OD
OD (ELISA signal) [22]: 0.399 OD
OD (ELISA signal) [23]: 0.176 OD
OD (ELISA signal) [24]: 0.241 OD
OD (ELISA signal) [25]: 0.188 OD
OD (ELISA signal) [26]: 0.112 OD
OD (ELISA signal) [27]: 0.16 OD
OD (ELISA signal) [28]: 0.149 OD
OD (ELISA signal) [29]: 0.316 OD
OD (ELISA signal) [30]: 0.168 OD
OD (ELISA signal) [31]: 0.185 OD
Bioactivity (binding) [32]: 85%
Potency determined by BLI assay [33]: 80%
Substance: IMP321, recombinant soluble human LAG-3Ig fusion protein (Fc fusion)
